Data from US20240156865A1 (BIONOXX, published 2024).
Read-outs that look alike come from different tables or passages of the source.

Tests used:
[1] = target: T1, A56-C-His (recombinant protein A56 with C-terminal His tag, produced in HEK293F cells) (vaccinia virus, UniProt P08714 17-279)
T1 chain: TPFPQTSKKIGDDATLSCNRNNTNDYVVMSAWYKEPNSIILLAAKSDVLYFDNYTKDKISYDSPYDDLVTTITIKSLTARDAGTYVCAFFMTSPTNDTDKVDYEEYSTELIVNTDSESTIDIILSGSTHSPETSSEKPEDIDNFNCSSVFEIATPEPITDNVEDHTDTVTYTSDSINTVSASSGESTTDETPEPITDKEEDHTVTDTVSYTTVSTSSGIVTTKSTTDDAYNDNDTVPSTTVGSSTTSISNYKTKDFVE

[2] = target: T1, A56-C-His (recombinant protein A56 with …); assay: ELISA (row 'KD (M) by ELISA')
[3] = target: T1, A56-C-His (recombinant protein A56 with …); assay: ELISA on coated A56 (100 ng), fit; R square 0.9969
[4] = target: T1, A56-C-His (recombinant protein A56 with …); assay: OCTET (row 'KD (M) by OCTET'; the legend calls it SPR)
[5] = target: T1, A56-C-His (recombinant protein A56 with …)
[6] = target: T1, A56-C-His (recombinant protein A56 with …); assay: ELISA (row 'KD (M) by ELISA')
[7] = target: T1, A56-C-His (recombinant protein A56 with …); assay: ELISA on coated A56 (100 ng), fit; R square 0.9942
[8] = target: T1, A56-C-His (recombinant protein A56 with …); assay: OCTET (row 'KD (M) by OCTET'; the legend calls it SPR)
[9] = target: T1, A56-C-His (recombinant protein A56 with …); assay: ELISA (row 'KD (M) by ELISA')
[10] = target: T1, A56-C-His (recombinant protein A56 with …); assay: ELISA on coated A56 (100 ng), fit; R square 0.9953
[11] = target: T1, A56-C-His (recombinant protein A56 with …); assay: OCTET (row 'KD (M) by OCTET'; the legend calls it SPR)
[12] = target: T1, A56-C-His (recombinant protein A56 with …); assay: ELISA (row 'KD (M) by ELISA')
[13] = target: T1, A56-C-His (recombinant protein A56 with …); assay: ELISA on coated A56 (100 ng), fit; R square 0.9274
[14] = target: T1, A56-C-His (recombinant protein A56 with …); assay: OCTET (row 'KD (M) by OCTET'; the legend calls it SPR)
[15] = target: T1, A56-C-His (recombinant protein A56 with …); assay: ELISA (row 'KD (M) by ELISA')
[16] = target: T1, A56-C-His (recombinant protein A56 with …); assay: ELISA on coated A56 (100 ng), fit; R square 0.9821
[17] = target: T1, A56-C-His (recombinant protein A56 with …); assay: OCTET (row 'KD (M) by OCTET'; the legend calls it SPR)

B1: anti-A56 antibody Ab01 (antibody, V domains shown)
VH: QMQLVQSGAEVKKPGSSVKVSCKASGGTFSSYAISWVRQAPGQGLEWMGGIIPIFGTANYAQKFQGRVTMTRDTSTSTVYMELSSLKSEDTAVYYCARFVFGSGTYLDSWGQGTLVTVSS
VL: not shown
notes: also called SA2026; A56-01A02
B1 gave a Kd [1] of 0.492 nM, a koff [1] of 9.67e-05 s⁻¹ and a Kd [2] of 0.029 nM. It also gave a Kd [3] of 0.029 nM, a Kd [4] of 0.492 nM and a kon [5] of 196000 M⁻¹ s⁻¹.

B2: anti-A56 antibody Ab18 (antibody, V domains shown)
VH: QVQLVESGGGLVQPGKSLRLSCAASGFTFSTYGMTWVRQAPGKGLEWVSGISGGGSSTNYADSVKGRFIISRDNSNNTLYLQMNSLRAEDTAVYYCARWGVMLSFDYWGQGTPVTVSS
VL: DIQMTQSPSTLPASVGDRVTITCRASYSVSPWLAWYQQKPGKAPKLLIYKASTLESGVPSRFSGSGSGTEFTLTISSLQPDDFATYYCQQFNSYMMYTFGQGTKLEIK
notes: also called SA2043; A56-02C06
B2 was tested, and the Kd [1] was 0.196 nM, the koff [1] was 1.96e-05 s⁻¹ and the Kd [6] was 0.026 nM. For the same binder, the Kd [7] was 0.026 nM, the Kd [8] was 0.196 nM and the kon [5] was 100000 M⁻¹ s⁻¹.

B3: anti-A56 antibody Ab19 (antibody, V domains shown)
VH: QVQLVESGAEVRRPGSSVKVSCKTSGVTFSGYVLSWVRQAPGHGLEWMGRIIPLIDVENYAREFQGRMKITADKSTNTVYMELNNLRSEDTAVYYCAKSVVRGLDYYYYGFDVWGQGTTVTVSS
VL: SYELTQPPSLSVAPGKTARITCGGNNIGSKSVHWYQQKPGQAPRLVTYYDGNRPSGIPERFSGSNSGNTATLIISRVEAGDEADYYCQVWDSSSDQGVFGTGTKVTVL
notes: also called SA2044; A56-02C07
For B3, the Kd [1] was 0.438 nM, the koff [1] was 2.47e-05 s⁻¹ and the Kd [9] was 0.044 nM. It also gave a Kd [10] of 0.044 nM, a Kd [11] of 0.438 nM and a kon [5] of 56400 M⁻¹ s⁻¹.

B4: anti-A56 antibody Ab13 (antibody, V domains shown)
VH: QMQLVESGAEVKKTGSSVKVSCKASGDTLTYRFLHWVRQAPGQAPEWMGWITPFNDNTNYAQKFQDRVTITRDRSMSTAYMELSSLRSEDTAVYYCATGGGNNYYGMEVWGQGTPITVSS
VL: SYELTQPLSLSVSPGQTASITCSGDKLGDKFTSWYQQQPGQSPVLVIYQDAKRPSGIPERFSGSNSGSTATLTISGTQSMDEADYYCQAWDSSSVVFGGGTKLTVL
notes: also called SA2038; A56-02A02
B4 was tested, and the Kd [1] was 0.739 nM, the koff [1] was 8.26e-05 s⁻¹ and the Kd [12] was 0.033 nM. The Kd [13] was 0.033 nM, the Kd [14] was 0.739 nM and the kon [5] was 112000 M⁻¹ s⁻¹.

B5: anti-A56 antibody Ab16 (antibody, V domains shown)
VH: QVQLQQSGPGLVKPSQTLSLTCAISGDSVSSNSAAWNWIRQSPSRGLEWLGRTYYRSKWYNDYAVSVKSRITINPDTSKNQFSLQLNSVTAVDTAVYYCAKSYAGPISYYYYGLDVWGQGTTVTVSS
VL: QSALTQPASVSGSPGQSVTISCTGTSSDIGRYNLVSWYQQHPGKAPKLMIYGGSKRPSGVSNRFSGSNSDNTASLTISGLRAEDEADYYCSSYASSSTPYVFGTGTKVTVL
notes: also called SA2041; A56-02B08
With B5 the Kd [1] was 2.28 nM, the koff [1] was 0.000561 s⁻¹ and the Kd [15] was 0.024 nM. The Kd [16] was 0.024 nM, the Kd [17] was 0.228 nM and the kon [5] was 246000 M⁻¹ s⁻¹.
